Laboratory results from US20200087347 (published 2020).
Where two headings read alike, the source gives them in different places. Side-chain parts run from the residue outwards. [ ]: non-standard residue; d: D form. N‑Me‑Lys‑pentyne = N-methyl-lysine carrying a pentyne (alkyne) group; Pro‑4‑NH‑hexyne = not defined here; dNMeF = CN[C@H](Cc1ccccc1)C(=O)O; NMeK = CN[C@@H](CCCCN)C(=O)O; Ahx = NCCCCCC(=O)O; BDPFL = dye

T1: integrin αvβ8 (human, UniProt P06756)
T1 chain 1: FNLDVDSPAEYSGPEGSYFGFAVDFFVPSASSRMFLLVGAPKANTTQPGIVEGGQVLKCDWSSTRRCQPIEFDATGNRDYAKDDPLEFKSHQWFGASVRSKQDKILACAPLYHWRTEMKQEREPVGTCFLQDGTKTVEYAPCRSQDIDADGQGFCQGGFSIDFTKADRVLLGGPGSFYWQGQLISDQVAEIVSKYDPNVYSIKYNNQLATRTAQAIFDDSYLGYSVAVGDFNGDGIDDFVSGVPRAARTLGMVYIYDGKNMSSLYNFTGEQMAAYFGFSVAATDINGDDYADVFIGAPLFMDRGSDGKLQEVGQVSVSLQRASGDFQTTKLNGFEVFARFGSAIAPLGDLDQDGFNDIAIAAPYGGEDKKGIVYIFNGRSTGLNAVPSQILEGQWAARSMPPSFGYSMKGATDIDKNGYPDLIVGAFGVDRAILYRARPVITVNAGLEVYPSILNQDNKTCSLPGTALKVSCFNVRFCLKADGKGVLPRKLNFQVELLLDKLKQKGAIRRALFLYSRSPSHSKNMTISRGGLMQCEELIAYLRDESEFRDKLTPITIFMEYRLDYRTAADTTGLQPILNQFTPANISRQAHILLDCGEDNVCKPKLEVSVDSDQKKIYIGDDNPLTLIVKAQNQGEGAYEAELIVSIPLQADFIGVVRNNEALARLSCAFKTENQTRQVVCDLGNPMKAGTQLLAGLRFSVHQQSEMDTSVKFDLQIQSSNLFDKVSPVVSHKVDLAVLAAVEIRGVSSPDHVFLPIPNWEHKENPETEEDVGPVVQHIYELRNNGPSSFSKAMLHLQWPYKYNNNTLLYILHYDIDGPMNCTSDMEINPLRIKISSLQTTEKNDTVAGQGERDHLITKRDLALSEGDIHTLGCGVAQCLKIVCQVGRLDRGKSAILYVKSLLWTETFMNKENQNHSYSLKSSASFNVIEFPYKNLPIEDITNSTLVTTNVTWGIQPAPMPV
T1 chain 2: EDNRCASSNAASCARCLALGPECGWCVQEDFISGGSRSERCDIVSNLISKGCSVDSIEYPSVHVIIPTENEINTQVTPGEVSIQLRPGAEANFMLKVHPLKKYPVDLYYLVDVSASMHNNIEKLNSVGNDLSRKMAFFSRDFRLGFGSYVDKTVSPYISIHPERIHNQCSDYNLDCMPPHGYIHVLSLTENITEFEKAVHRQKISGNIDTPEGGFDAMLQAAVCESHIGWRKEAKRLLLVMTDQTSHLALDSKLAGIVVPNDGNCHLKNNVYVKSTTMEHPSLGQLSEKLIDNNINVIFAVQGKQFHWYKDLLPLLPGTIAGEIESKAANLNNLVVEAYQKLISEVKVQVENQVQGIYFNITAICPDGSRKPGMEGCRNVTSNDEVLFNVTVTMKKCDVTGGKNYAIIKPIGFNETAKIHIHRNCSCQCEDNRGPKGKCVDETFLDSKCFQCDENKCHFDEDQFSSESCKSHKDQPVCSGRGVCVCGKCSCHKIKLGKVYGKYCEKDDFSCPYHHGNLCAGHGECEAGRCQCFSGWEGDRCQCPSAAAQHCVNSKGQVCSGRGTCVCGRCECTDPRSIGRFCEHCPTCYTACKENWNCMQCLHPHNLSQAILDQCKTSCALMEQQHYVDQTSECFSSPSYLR

T2: integrin αvβ3 (human, UniProt P06756)
T2 chain 1: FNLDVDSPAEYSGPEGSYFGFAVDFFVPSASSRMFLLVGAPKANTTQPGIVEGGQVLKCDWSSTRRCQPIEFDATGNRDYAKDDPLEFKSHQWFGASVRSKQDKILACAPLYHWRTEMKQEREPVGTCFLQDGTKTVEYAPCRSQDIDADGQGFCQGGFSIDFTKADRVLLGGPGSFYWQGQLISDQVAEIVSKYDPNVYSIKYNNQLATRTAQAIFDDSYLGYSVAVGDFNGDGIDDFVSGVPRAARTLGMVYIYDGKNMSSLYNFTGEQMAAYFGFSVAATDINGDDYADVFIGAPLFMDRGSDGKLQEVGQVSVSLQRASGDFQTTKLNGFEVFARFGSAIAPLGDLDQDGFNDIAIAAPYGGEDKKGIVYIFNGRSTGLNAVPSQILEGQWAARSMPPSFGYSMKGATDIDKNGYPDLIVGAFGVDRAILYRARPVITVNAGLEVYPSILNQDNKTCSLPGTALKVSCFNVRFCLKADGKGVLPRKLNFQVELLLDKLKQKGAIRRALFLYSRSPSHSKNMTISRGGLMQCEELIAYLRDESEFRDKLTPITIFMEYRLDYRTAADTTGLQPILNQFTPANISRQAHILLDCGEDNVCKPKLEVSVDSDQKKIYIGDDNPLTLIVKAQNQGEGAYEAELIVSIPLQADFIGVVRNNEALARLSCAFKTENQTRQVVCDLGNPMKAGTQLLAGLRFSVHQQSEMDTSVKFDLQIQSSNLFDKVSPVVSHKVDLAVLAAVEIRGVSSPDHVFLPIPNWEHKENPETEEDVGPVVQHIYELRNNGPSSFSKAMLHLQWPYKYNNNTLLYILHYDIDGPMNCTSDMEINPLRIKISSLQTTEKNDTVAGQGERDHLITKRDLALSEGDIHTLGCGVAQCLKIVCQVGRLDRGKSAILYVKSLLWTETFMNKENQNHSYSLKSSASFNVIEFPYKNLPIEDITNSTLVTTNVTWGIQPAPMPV
T2 chain 2: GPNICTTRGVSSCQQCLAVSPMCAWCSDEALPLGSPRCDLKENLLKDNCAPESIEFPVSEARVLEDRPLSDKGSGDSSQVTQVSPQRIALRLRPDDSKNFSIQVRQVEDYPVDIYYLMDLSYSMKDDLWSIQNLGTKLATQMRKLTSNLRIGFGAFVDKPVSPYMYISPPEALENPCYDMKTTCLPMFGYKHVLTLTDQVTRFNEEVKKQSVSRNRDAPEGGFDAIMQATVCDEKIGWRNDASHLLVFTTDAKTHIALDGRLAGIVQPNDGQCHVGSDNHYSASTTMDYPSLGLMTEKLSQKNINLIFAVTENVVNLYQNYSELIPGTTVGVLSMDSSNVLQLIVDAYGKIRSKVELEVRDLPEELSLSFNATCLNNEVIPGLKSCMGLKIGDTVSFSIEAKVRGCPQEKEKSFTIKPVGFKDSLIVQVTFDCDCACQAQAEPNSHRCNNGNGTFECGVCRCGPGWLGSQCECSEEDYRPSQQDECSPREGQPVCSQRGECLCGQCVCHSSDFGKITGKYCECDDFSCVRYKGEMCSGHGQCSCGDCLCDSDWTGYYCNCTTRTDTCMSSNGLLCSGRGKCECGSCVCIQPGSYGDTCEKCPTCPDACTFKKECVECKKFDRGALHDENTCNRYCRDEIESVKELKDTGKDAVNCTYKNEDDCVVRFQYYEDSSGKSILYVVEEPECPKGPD

T3: integrin αvβ6 (human, UniProt P06756)
T3 chain 1: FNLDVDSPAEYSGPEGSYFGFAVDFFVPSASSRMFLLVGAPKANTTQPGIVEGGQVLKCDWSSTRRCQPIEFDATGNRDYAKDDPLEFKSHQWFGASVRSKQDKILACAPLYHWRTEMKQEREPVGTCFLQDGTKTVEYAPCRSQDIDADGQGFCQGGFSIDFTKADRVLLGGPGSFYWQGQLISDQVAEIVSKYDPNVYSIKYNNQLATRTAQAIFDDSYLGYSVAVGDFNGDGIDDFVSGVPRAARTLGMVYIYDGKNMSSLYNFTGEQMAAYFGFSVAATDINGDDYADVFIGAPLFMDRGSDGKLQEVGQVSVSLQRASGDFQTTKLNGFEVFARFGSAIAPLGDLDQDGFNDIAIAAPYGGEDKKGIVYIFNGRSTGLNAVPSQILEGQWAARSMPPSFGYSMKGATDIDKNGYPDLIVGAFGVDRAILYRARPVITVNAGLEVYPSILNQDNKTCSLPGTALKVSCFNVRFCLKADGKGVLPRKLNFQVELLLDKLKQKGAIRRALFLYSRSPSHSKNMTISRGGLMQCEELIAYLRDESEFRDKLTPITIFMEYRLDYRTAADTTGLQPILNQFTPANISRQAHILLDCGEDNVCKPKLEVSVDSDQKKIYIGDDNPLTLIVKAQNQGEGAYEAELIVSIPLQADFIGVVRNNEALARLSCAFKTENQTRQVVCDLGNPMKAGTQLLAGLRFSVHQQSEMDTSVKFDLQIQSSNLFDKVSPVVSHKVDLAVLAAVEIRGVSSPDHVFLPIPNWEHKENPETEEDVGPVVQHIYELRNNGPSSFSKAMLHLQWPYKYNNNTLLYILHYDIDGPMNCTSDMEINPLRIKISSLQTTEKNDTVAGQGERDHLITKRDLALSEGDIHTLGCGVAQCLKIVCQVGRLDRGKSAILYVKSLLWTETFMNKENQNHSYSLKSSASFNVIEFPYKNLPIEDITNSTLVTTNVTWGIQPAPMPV
T3 chain 2: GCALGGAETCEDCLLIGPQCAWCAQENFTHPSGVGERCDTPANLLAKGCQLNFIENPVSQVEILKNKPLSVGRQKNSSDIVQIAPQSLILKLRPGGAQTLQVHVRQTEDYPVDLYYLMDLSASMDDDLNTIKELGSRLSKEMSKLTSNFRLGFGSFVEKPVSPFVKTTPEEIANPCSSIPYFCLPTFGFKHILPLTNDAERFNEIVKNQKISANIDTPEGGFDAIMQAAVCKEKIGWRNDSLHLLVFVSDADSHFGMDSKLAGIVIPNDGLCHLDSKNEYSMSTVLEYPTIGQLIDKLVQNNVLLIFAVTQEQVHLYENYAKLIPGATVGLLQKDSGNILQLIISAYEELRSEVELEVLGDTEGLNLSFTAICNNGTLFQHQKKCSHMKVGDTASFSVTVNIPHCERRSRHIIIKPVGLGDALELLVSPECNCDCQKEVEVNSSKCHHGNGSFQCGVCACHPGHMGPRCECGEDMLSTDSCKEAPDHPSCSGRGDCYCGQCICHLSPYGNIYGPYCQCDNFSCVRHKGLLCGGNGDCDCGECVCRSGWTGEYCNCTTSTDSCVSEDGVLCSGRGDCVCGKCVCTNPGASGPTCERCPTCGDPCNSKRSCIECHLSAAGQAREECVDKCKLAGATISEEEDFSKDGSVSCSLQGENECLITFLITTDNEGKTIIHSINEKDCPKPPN


Key:
Experiment in all cases: competition
integrin αvβ8 [1] = target: T1, integrin αvβ8
integrin αvβ3 = target: T2, integrin αvβ3
integrin αvβ6 [2] = target: T3, integrin αvβ6
integrin αvβ6 [3] = target: T3, integrin αvβ6
integrin αvβ8 [4] = target: T1, integrin αvβ8

| Binder | IC50 (integrin αvβ8 [1]) | IC50 (integrin αvβ3) | IC50 (integrin αvβ6 [2]) | IC50 (integrin αvβ6 [3]) | IC50 (integrin αvβ8 [4]) |
| --- | --- | --- | --- | --- | --- |
| cyclo(RGD[dF]K) (also: Ahx-BDPFL conjugate, attachment site not given here) [Compound 13 (Table 3) c(RGDfK)-Ahx-BDPFL] | 258 nM | 2.55 nM | 7.8 nM | – | – |
| cyclo(RGDL[dP]PAH) (SMILES CC(C)C[C@@H]1NC(=O)[C@H](CC(=O)O)NC(=O)CNC(=O)[C@H](CCCNC(=N)N)NC(=O)[C@H](Cc2c[nH]cn2)NC(=O)[C@H](C)NC(=O)[C@@H]2CCCN2C(=O)[C@H]2CCCN2C1=O) [Compound 5] | – | – | – | 171 nM | 2.2 nM |
| cyclo(RGDL[dP]PAA) (SMILES CC(C)C[C@@H]1NC(=O)[C@H](CC(=O)O)NC(=O)CNC(=O)[C@H](CCCNC(=N)N)NC(=O)[C@H](C)NC(=O)[C@H](C)NC(=O)[C@@H]2CCCN2C(=O)[C@H]2CCCN2C1=O) [Compound 10 (Table 1)] | – | – | – | 114 nM | 8.1 nM |
| cyclo(RGDL[dP]PAL) (SMILES CC(C)C[C@@H]1NC(=O)[C@H](C)NC(=O)[C@@H]2CCCN2C(=O)[C@H]2CCCN2C(=O)[C@H](CC(C)C)NC(=O)[C@H](CC(=O)O)NC(=O)CNC(=O)[C@H](CCCNC(=N)N)NC1=O) [Compound 1] | – | – | – | 84 nM | 1.4 nM |
| cyclo(GLRVDL[dP][NMeK]([Ahx-BDPFL])) [Compound 11 (Table 3) c(GLRVDLp(NMe)K)-Ahx-BDPFL] | 1120 nM | > 10000 nM | > 10000 nM | – | – |
| cyclo(RGDL[dNMeF]PAL) (SMILES CC(C)C[C@@H]1NC(=O)[C@H](C)NC(=O)[C@@H]2CCCN2C(=O)[C@@H](Cc2ccccc2)N(C)C(=O)[C@H](CC(C)C)NC(=O)[C@H](CC(=O)O)NC(=O)CNC(=O)[C@H](CCCNC(=N)N)NC1=O) [Compound 6] | – | – | – | 139 nM | 9.4 nM |
| cyclo(RGDL[dP][N‑Me‑Lys‑pentyne]GL) [Compound 11 (Table 1)] | – | – | – | 41 nM | 1.7 nM |
| cyclo(RGDL[dP]PAL) (SMILES CC(C)C[C@@H]1NC(=O)[C@H](C)NC(=O)[C@@H]2CCCN2C(=O)[C@H]2CCCN2C(=O)[C@H](CC(C)C)NC(=O)[C@H](CC(=O)O)NC(=O)CNC(=O)[C@H](CCCNC(=N)N)NC1=O) [Compound 7] | – | – | – | 32 nM | 1.31 nM |
| cyclo(RGDL[dP][NMeK]([Ahx-Ahx-BDPFL])GL) [Compound 9c (9-Ahx-Ahx-BDPFL)] | 1.52 nM | 500 nM | 64 nM | – | – |
| cyclo(RGDL[dP]PSL) (SMILES CC(C)C[C@@H]1NC(=O)[C@H](CO)NC(=O)[C@@H]2CCCN2C(=O)[C@H]2CCCN2C(=O)[C@H](CC(C)C)NC(=O)[C@H](CC(=O)O)NC(=O)CNC(=O)[C@H](CCCNC(=N)N)NC1=O) [Compound 3] | – | – | – | 187 nM | 12.5 nM |
| cyclo(RGDL[dP]PAY) (SMILES CC(C)C[C@@H]1NC(=O)[C@H](CC(=O)O)NC(=O)CNC(=O)[C@H](CCCNC(=N)N)NC(=O)[C@H](Cc2ccc(O)cc2)NC(=O)[C@H](C)NC(=O)[C@@H]2CCCN2C(=O)[C@H]2CCCN2C1=O) [Compound 4] | – | – | – | 156 nM | 1.1 nM |
| cyclo(RGDL[dP]PAF) [Compound 13 (Table 1)] | – | – | – | 81 nM | 1.83 nM |
| cyclo(RGDL[dP][Pro‑4‑NH‑hexyne]GL) (reading uncertain) [Compound 12 (Table 1)] | – | – | – | 217 nM | 8.8 nM |
